Residue numbers refer to the chain shown, from its start. Numbers in names are those of the source.
T1: human α-CGRP (Homo sapiens, UniProt P06881)
T1 construct: 1-37 (WT); purchased; host or cells: synthetic peptide
T1 sequence (P06881 83-119 limits assumed): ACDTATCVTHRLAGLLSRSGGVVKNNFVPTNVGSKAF

T2: rat α-CGRP (Rattus norvegicus, UniProt P01256)
T2 construct: rat α (1-37); host or cells: synthetic peptide
T2 sequence (P01256 83-119 limits assumed): T1 sequence (P06881 83-119 limits assumed) with A1S, D3N, N25D, K35E

B1: M22: G1 variant: L1 R28W; HC-FW3 L99T (antibody, V domains shown)
VH: EVQLVESGGGLVQPGGSLRLSCAASGFTFSNYWISWVRQAPGKGLEWVAEIRSESDASATHYAEAVKGRFTISRDNAKNSLYLQMNSLRAEDTAVYYCTAYFDYGLAIQNYWGQGTLVTVSS
VL: EIVLTQSPATLSLSPGERATLSCKASKWVTTYVSWYQQKPGQAPRLLIYGASNRYLGIPARFSGSGSGTDFTLTISSLEPEDFAVYYCSQSYNYPYTFGQGTKLEIK
B2: M24: G1 variant: L1 R28L; HC-FW3 L99T,A100V (antibody, V domains shown)
VH: B1 VH with A100V
VL: B1 VL with W28L
B3: M26: G1 variant: L1 R28N; H2 A57G; HC-FW3 L99T,A100V (antibody, V domains shown)
VH: B1 VH with A57G, A100V
VL: B1 VL with W28N
B4: M31: G1 variant: L1 R28N,T30G; H2 E54K,A57G; HC-FW3 L99T,A100V (antibody, V domains shown)
VH: B1 VH with E54K, A57G, A100V
VL: B1 VL with W28N, T30G
B5: M37: G1 variant: L1 R28N,T30S; H2 A57G; HC-FW3 L99T,A100V (antibody, V domains shown)
VH: B1 VH with A57G, A100V
VL: B1 VL with W28N, T30S
B6: M40: G1 variant: L1 R28N; L2 G50A,L56T; H2 E54K,A57L; HC-FW3 L99T,A100V (antibody, V domains shown)
VH: B1 VH with E54K, A57L, A100V
VL: B1 VL with W28N, G50A, L56T
B7: M38: G1 variant: L1 R28N,T30W; HC-FW3 L99T,A100V (antibody, V domains shown)
VH: B1 VH with A100V
VL: B1 VL with W28N, T30W
B8: M30: G1 variant: L1 R28N,T30G; H2 E54K,A57E; HC-FW3 L99T,A100V (antibody, V domains shown)
VH: B1 VH with E54K, A57E, A100V
VL: B1 VL with W28N, T30G
B9: M33: G1 variant: L1 R28N,T30G; H2 E54K,A57N,S58G; HC-FW3 L99T,A100V (antibody, V domains shown)
VH: B1 VH with E54K, A57N, S58G, A100V
VL: B1 VL with W28N, T30G
B10: M25: G1 variant: L1 R28N; HC-FW3 L99T,A100V (antibody, V domains shown)
VH: B1 VH with A100V
VL: B1 VL with W28N
B11: M36: G1 variant: L1 R28N,T30R; HC-FW3 L99T,A100V (antibody, V domains shown)
VH: B1 VH with A100V
VL: B1 VL with W28N, T30R
B12: M39: G1 variant: L1 R28N; L2 G50A,L56T; H2 A57N,S58Y; HC-FW3 L99T,A100V (antibody, V domains shown)
VH: B1 VH with A57N, S58Y, A100V
VL: B1 VL with W28N, G50A, L56T
B13: M45: G1 variant: L1 R28N; L2 G50A,L56T; H2 E54K,A57N,S58E,E64D; HC-FW3 L99T,A100V (antibody, V domains shown)
VH: B1 VH with E54K, A57N, S58E, E64D, A100V
VL: B1 VL with W28N, G50A, L56T
B14: M41: G1 variant: L1 R28N; L2 G50A,L56T; H2 E54K,A57N,E64D; HC-FW3 L99T,A100V (antibody, V domains shown)
VH: B1 VH with E54K, A57N, E64D, A100V
VL: B1 VL with W28N, G50A, L56T
B15: M35: G1 variant: L1 R28N,T30G; H2 E54K,A57S; HC-FW3 L99T,A100V (antibody, V domains shown)
VH: B1 VH with E54K, A57S, A100V
VL: B1 VL with W28N, T30G
B16: M28: G1 variant: L1 R28N,T30D; H2 E54R,A57N; HC-FW3 L99T,A100V (antibody, V domains shown)
VH: B1 VH with E54R, A57N, A100V
VL: B1 VL with W28N, T30D
B17: M32: G1 variant: L1 R28N,T30G; H2 E54K,A57H; HC-FW3 L99T,A100V (antibody, V domains shown)
VH: B1 VH with E54K, A57H, A100V
VL: B1 VL with W28N, T30G
B18: M44: G1 variant: L1 R28N; L2 G50A,L56T; H2 E54K,A57N,S58E; HC-FW3 L99T,A100V (antibody, V domains shown)
VH: B1 VH with E54K, A57N, S58E, A100V
VL: B1 VL with W28N, G50A, L56T
B19: M27: G1 variant: L1 R28N,T30A; HC-FW3 L99T,A100V (antibody, V domains shown)
VH: B1 VH with A100V
VL: B1 VL with W28N, T30A
B20: M34: G1 variant: L1 R28N,T30G; H2 E54K,A57N,S58T; HC-FW3 L99T,A100V (antibody, V domains shown)
VH: B1 VH with E54K, A57N, S58T, A100V
VL: B1 VL with W28N, T30G
B21: M29: G1 variant: L1 R28N,T30G; HC-FW3 L99T,A100V (antibody, V domains shown)
VH: B1 VH with A100V
VL: B1 VL with W28N, T30G
B22: M23: G1 variant: L1 R28G; HC-FW3 L99T,A100V (antibody, V domains shown)
VH: B1 VH with A100V
VL: B1 VL with W28G
B23: M42: G1 variant: L1 R28N; L2 G50A,L56T; H2 E54K,A57N,H61F; HC-FW3 L99T,A100V (antibody, V domains shown)
VH: B1 VH with E54K, A57N, H61F, A100V
VL: B1 VL with W28N, G50A, L56T
B24: M43: G1 variant: L1 R28N; L2 G50A,L56T; H2 E54K,A57N,S58C; HC-FW3 L99T,A100V (antibody, V domains shown)
VH: B1 VH with E54K, A57N, S58C, A100V
VL: B1 VL with W28N, G50A, L56T

Target: T1, human α-CGRP
Assay: Biacore affinity of antibody G1 Fab and variants to human α-CGRP
Type: binding
Details: 37° C., Fab, screening mode unless underlined
Description: (§1) Biacore assay for affinity determination. […] All Biacore assays were conducted in HBS-EP running buffer (10 mM HEPES pH 7.4, 150 mM NaCl, 3 mM EDTA, 0.005% v/v polysorbate P20). CGRP surfaces were prepared by diluting the N-biotinylated CGRP to a concentration of less than 0.001 mg/mL into HBS-EP buffer and injecting it across the SA sensor chip using variable contact times. Low capacity surfaces, corresponding to capture levels <50 response units (RU) were used for high-resolution kinetic studies, whereas high capacity surfaces (about 800 RU of captured CGRP) were used for concentration studies, screening, and solution affinity determinations. […] Samples were typically injected for lminute at 100 μL/min and dissociation times of at least 10 minutes were allowed. After each binding cycle, surfaces were regenerated with 25 mM NaOH in 25% v/v ethanol, which was tolerated over hundreds of cycles. An entire titration series (typically generated in duplicate) was fit globally to a 1:1 Langmuir binding model using the BlAevaluation program. This returned a unique pair of association and dissociation kinetic rate constants (respectively, kon and koff) for each binding interaction, whose ratio gave the equilibrium dissociation constant (KD=koff/[…]).
(§2) High-resolution analysis of binding interactions with extremely slow offrates. […] The protocol described above was used with the following modifications. The association rate constant (kon) was determined by injecting a 2-fold titration series (in duplicate) spanning 550 nM-1 nM for 30 seconds at 100 μL/min and allowing only a 30 second dissociation phase. The dissociation rate constant (koff) was determined by injecting three concentrations (high, medium, and low) of the same titration series in duplicate for 30 seconds and allowing a 2-hour dissociation phase. The affinity (KD) of each interaction was obtained by combining the kon and koff values obtained in both types of experiments, as shown in Table 4.
(§3) The binding affinities of Fab fragments were determined by Biacore by flowing them across CGRPs on a SA chip.

Point of comparison: B19, α-human koff 0.000357 s⁻¹. Against it:
- B1 — 3.1-fold lower, 0.000116 s⁻¹
- B2 — 2.4-fold lower, 0.000148 s⁻¹
- B3 — 2.4-fold lower, 0.000148 s⁻¹
- B4 — within 1.5-fold, 0.000347 s⁻¹
- B5 — 1.6-fold lower, 0.000226 s⁻¹
- B6 — 3.6-fold higher, 0.00128 s⁻¹
- B7 — 1.6-fold lower, 0.000218 s⁻¹
- B8 — 1.7-fold higher, 0.00059 s⁻¹
- B9 — 2.1-fold higher, 0.00075 s⁻¹
- B10 — 2.6-fold lower, 0.00014 s⁻¹
- B11 — within 1.5-fold, 0.000239 s⁻¹
- B12 — within 1.5-fold, 0.000425 s⁻¹
- B13 — 1.7-fold lower, 0.000211 s⁻¹
- B14 — 1.7-fold lower, 0.00021 s⁻¹
- B15 — within 1.5-fold, 0.000339 s⁻¹
- B16 — 3.6-fold lower, 9.96e-05 s⁻¹
- B17 — within 1.5-fold, 0.000271 s⁻¹
- B18 — 1.7-fold lower, 0.00021 s⁻¹
- B20 — 1.8-fold higher, 0.000646 s⁻¹
- B21 — within 1.5-fold, 0.00038 s⁻¹
- B22 — 2.7-fold lower, 0.00013 s⁻¹
- B23 — within 1.5-fold, 0.000417 s⁻¹
- B24 — within 1.5-fold, 0.000263 s⁻¹

Target: T2, rat α-CGRP
Assay: Biacore affinity of antibody G1 Fab and variants to rat α-CGRP
Type: binding
Details: 37° C., Fab, screening mode unless underlined
Description: as §1, §2, §3

Point of comparison: B15, α-rat koff 0.00399 s⁻¹. Against it:
- B1 — 3.6-fold lower, 0.0011 s⁻¹
- B2 — 3.8-fold lower, 0.00104 s⁻¹
- B3 — 4.3-fold lower, 0.000924 s⁻¹
- B4 — within 1.5-fold, 0.00361 s⁻¹
- B5 — 2.8-fold lower, 0.00145 s⁻¹
- B6 — 90-fold higher, 0.36 s⁻¹
- B7 — within 1.5-fold, 0.00511 s⁻¹
- B8 — 1.6-fold higher, 0.00638 s⁻¹
- B9 — 2.3-fold higher, 0.00922 s⁻¹
- B10 — 2.8-fold lower, 0.0014 s⁻¹
- B11 — within 1.5-fold, 0.00479 s⁻¹
- B12 — 2.5-fold higher, 0.00995 s⁻¹
- B13 — within 1.5-fold, 0.00558 s⁻¹
- B14 — within 1.5-fold, 0.00453 s⁻¹
- B16 — 3.2-fold lower, 0.00125 s⁻¹
- B17 — within 1.5-fold, 0.00296 s⁻¹
- B18 — 1.5-fold higher, 0.00613 s⁻¹
- B19 — within 1.5-fold, 0.00341 s⁻¹
- B20 — 1.8-fold lower, 0.00217 s⁻¹
- B21 — within 1.5-fold, 0.00359 s⁻¹
- B22 — 5-fold lower, 0.000799 s⁻¹
- B23 — 1.9-fold higher, 0.00752 s⁻¹
- B24 — within 1.5-fold, 0.00453 s⁻¹

Reference: US10766952B2, “Methods for reducing migraine frequency in a subject in need thereof” (Beth Israel Deaconess Medical Center, Inc., priority 2017, dated 2020)
